Consider 62 sequences from the supplement of paper PMC7877785.

The series is described as follows: self-splicing fitness, log relative to wild type (ln ratio); higher = more splicing; Tetrahymena group I intron in knt gene, E. coli kanamycin selection, DiMSum; sequences stand for … in CUCUCU…GGAGGGAAAAGUUAUCAGGCAUGCACCUGGUAGCUAGUCUUUAAACCAAUAGAUUGCAUCGGUUUAAAAGGCAAGACCGUCAAAUUGCGGGAAAGGGGUCAACAGCCGUUCAGUACCAAGUCUCAGGGGAAACUUUGAGAUGGCCUUGCAAAGGGUAUGGUAAUAAGCUGACGGACAUGGUCCUAACCACGCAGCCAAGUCCUAAGUCAACAGAUCUUCUGUUGAUAUGGAUGCAGUUCACAGACUAAAUGUCGGUCGGGGAAGAUGUAUUCUUCUCAUAAGAUAUAGUCGGACCUCUCCUUAAUGGGAGCUAGCGGAUGAAGUGAUGCAACACUGGAGCCGCUGGGAACUAAUUUGUAUGCGAAAGUAUAUUGAUUAGUUUUGGAGUACUCGUGGUCG
A digest of the protocol:
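DiMSum derived fitness as the error-weighted combination of fold changes across replicates, kanamycin versus no kanamycin, normalised to wild type. E. coli BL21(DE3) held the library, which randomised all eight P1ex-region intron nucleotides within the knt kanamycin-resistance gene on pET-22b(+). Six replicate transformations grew overnight at 37°C or 30°C on LB agar with or without 25 μg/mL kanamycin, also containing 100 μg/mL carbenicillin, 50 μM IPTG and 0.2% rhamnose, and pooled colonies were amplicon-sequenced on an Illumina HiSeq 2500.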

± gives the uncertainty stated by the source.

On to CAUGAGCAAUAUUACGAUGA, for which the “self-splicing fitness (ln)” value (30 °C) is -3.5 ± 0.2 and the “self-splicing fitness (ln)” value (37 °C) is -2.48 ± 0.15. Turning to CAUGAGCAAUAUUACGAUGG, the “self-splicing fitness (ln)” value was -1.36 ± 0.1 (30 °C) and -0.83 ± 0.13 (37 °C). On the same counts, the results for CAUGAGCAAUAUUACGAUGU are -2.32 ± 0.19 and -2.72 ± 0.36. Take CAUGAGCAAUAUUACGGGGA: the “self-splicing fitness (ln)” value reads like this: (30 °C) -3.14 ± 0.19; (37 °C) -3.03 ± 0.22.

For CAUGAGCAAUAUUACGGGGC, the “self-splicing fitness (ln)” value by setting is: (30 °C) -4.13 ± 0.43; (37 °C) -2.35 ± 0.34.

With CAUGAGCAAUAUUACGGUCA, the “self-splicing fitness (ln)” value (30 °C) is -2.96 ± 0.2 and the “self-splicing fitness (ln)” value (37 °C) was -2.57 ± 0.22. The matching figures for CAUGAGCAAUAUUACGGUCU: -3.11 ± 0.28 and -1.2 ± 0.18. On the same counts, the results for CAUGAGCAAUAUUACGUCAA are -4.04 ± 0.33 and -2.64 ± 0.33. On the same counts, the results for CAUGAGCAAUAUUACGUUAA are -3.17 ± 0.32 and -2.29 ± 0.26. On to CAUUAGCAAUAUUACGAAGC, for which the “self-splicing fitness (ln)” value (30 °C) was -2.81 ± 0.32 and the “self-splicing fitness (ln)” value (37 °C) was -2.44 ± 0.49. On the same counts, the results for CAUUAGCAAUAUUACGACAG are 0.268 ± 0.06 and 0.168 ± 0.071.

As for CAUUAGCAAUAUUACGAGGA, the “self-splicing fitness (ln)” value (30 °C) was -2.75 ± 0.35. As for CAUUAGCAAUAUUACGAGUC, the “self-splicing fitness (ln)” value (37 °C) is -1.48 ± 0.37. The same measure, in the same setting: then CAUUAGCAAUAUUACGCAAA, with -2.25 ± 0.32. Regarding CAUUAGCAAUAUUACGCACA, the “self-splicing fitness (ln)” value (30 °C) was -1.01 ± 0.16 and the “self-splicing fitness (ln)” value (37 °C) is -0.408 ± 0.13. The matching figures for CAUUAGCAAUAUUACGCACG: -0.832 ± 0.12 and 0.325 ± 0.14. Turning to CAUUAGCAAUAUUACGCAUU, the “self-splicing fitness (ln)” value (30 °C) was -3.32 ± 0.15 and the “self-splicing fitness (ln)” value (37 °C) was -1.62 ± 0.094. The matching figures for CAUUAGCAAUAUUACGCGAA: -2.65 ± 0.19 and -1.17 ± 0.19.

For the sequence CAUUAGCAAUAUUACGCGGU, the “self-splicing fitness (ln)” value (30 °C) was -2.75 ± 0.33 and the “self-splicing fitness (ln)” value (37 °C) was -2.05 ± 0.42.

Consider CAUUAGCAAUAUUACGCGUA, for which the “self-splicing fitness (ln)” value reads like this: (30 °C) -1.76 ± 0.22; (37 °C) -1.2 ± 0.18. On the same counts, the results for CAUUAGCAAUAUUACGCUGA are -3.13 ± 0.24 and -1.96 ± 0.26. With CAUUAGCAAUAUUACGCUUG, the “self-splicing fitness (ln)” value (30 °C) is -2.46 ± 0.2 and the “self-splicing fitness (ln)” value (37 °C) was -2.6 ± 0.2. For CAUUAGCAAUAUUACGGAAC, the “self-splicing fitness (ln)” value (37 °C) is -0.879 ± 0.24. As to CAUUAGCAAUAUUACGGACU, the “self-splicing fitness (ln)” value (30 °C) is -2.75 ± 0.28 and the “self-splicing fitness (ln)” value (37 °C) was -1.89 ± 0.23. The matching figures for CAUUAGCAAUAUUACGGCAA: -2 ± 0.22 and -3.22 ± 0.47. On the same counts, the results for CAUUAGCAAUAUUACGGCUG are 0.0732 ± 0.078 and 0.0962 ± 0.088. The matching figures for CAUUAGCAAUAUUACGGGGA: -2.73 ± 0.21 and -1.77 ± 0.26. As for CAUUAGCAAUAUUACGGGUC, the “self-splicing fitness (ln)” value is -3.51 ± 0.29 (30 °C) and -1.5 ± 0.23 (37 °C). On the same counts, the results for CAUUAGCAAUAUUACGGGUG are -3.18 ± 0.16 and -1.57 ± 0.14.

With CAUUAGCAAUAUUACGGUGG, the “self-splicing fitness (ln)” value runs as follows: (30 °C) -0.719 ± 0.066; (37 °C) 0.024 ± 0.093. The matching figures for CAUUAGCAAUAUUACGUAAC: -3.01 ± 0.26 and -2.14 ± 0.25. On the same counts, the results for CAUUAGCAAUAUUACGUAAU are -2.73 ± 0.19 and -1.96 ± 0.21. On the same counts, the results for CAUUAGCAAUAUUACGUUGC are -3.96 ± 0.19 and -2.8 ± 0.19. Consider CCAAAGCAAUAUUACGAAGA, for which the “self-splicing fitness (ln)” value was -3.61 ± 0.27 (30 °C) and -2.2 ± 0.22 (37 °C).

For the sequence CCAAAGCAAUAUUACGAAUC, the “self-splicing fitness (ln)” value runs as follows: (30 °C) -2.82 ± 0.33; (37 °C) -2.52 ± 0.34.

Consider CCAAAGCAAUAUUACGACCG, for which the “self-splicing fitness (ln)” value was -0.022 ± 0.096 (30 °C) and -0.0691 ± 0.14 (37 °C). The matching figures for CCAAAGCAAUAUUACGAGUU: -4.72 ± 0.34 and -2.31 ± 0.16. Consider CCAAAGCAAUAUUACGAUAC, for which the “self-splicing fitness (ln)” value (30 °C) was -2.15 ± 0.27.

On to CCAAAGCAAUAUUACGAUAU, for which the “self-splicing fitness (ln)” value is, setting by setting: (30 °C) -4.16 ± 0.15; (37 °C) -2.79 ± 0.13.

On to CCAAAGCAAUAUUACGAUCG, for which the “self-splicing fitness (ln)” value (30 °C) is 0.0481 ± 0.058 and the “self-splicing fitness (ln)” value (37 °C) is -0.183 ± 0.075. Regarding CCAAAGCAAUAUUACGAUGC, the “self-splicing fitness (ln)” value (30 °C) is -3.78 ± 0.19 and the “self-splicing fitness (ln)” value (37 °C) was -3.64 ± 0.24. On the same counts, the results for CCAAAGCAAUAUUACGAUGG are -4.15 ± 0.22 and -2.29 ± 0.22. On to CCAAAGCAAUAUUACGAUGU, for which the “self-splicing fitness (ln)” value runs as follows: (30 °C) -2.93 ± 0.1; (37 °C) -2.1 ± 0.11. Take CCAAAGCAAUAUUACGCCGC: the “self-splicing fitness (ln)” value (37 °C) is -2.58 ± 0.38. As for CCAAAGCAAUAUUACGCCUG, the “self-splicing fitness (ln)” value runs as follows: (30 °C) -0.536 ± 0.055; (37 °C) -0.707 ± 0.07.

For the sequence CCAAAGCAAUAUUACGCGAU, the “self-splicing fitness (ln)” value is, setting by setting: (30 °C) -3.16 ± 0.21; (37 °C) -2.79 ± 0.28. The matching figures for CCAAAGCAAUAUUACGCGUA: -4.41 ± 0.34 and -3.75 ± 0.32. For CCAAAGCAAUAUUACGCGUG, the “self-splicing fitness (ln)” value reads like this: (30 °C) -1.93 ± 0.067; (37 °C) -1.26 ± 0.066.

As for CCAAAGCAAUAUUACGGUCU, the “self-splicing fitness (ln)” value runs as follows: (30 °C) -3.75 ± 0.16; (37 °C) -3.15 ± 0.19. The matching figures for CCAAAGCAAUAUUACGUACC: -3.76 ± 0.37 and -2.19 ± 0.32. With CCAAAGCAAUAUUACGUAUA, the “self-splicing fitness (ln)” value (30 °C) was -4.79 ± 0.32 and the “self-splicing fitness (ln)” value (37 °C) is -2.3 ± 0.14. In the case of CCAAAGCAAUAUUACGUCAG, the “self-splicing fitness (ln)” value (30 °C) was -1.64 ± 0.065 and the “self-splicing fitness (ln)” value (37 °C) was -0.149 ± 0.08. On the same counts, the results for CCAAAGCAAUAUUACGUCAU are -3.8 ± 0.2 and -2.87 ± 0.22. As for CCAAAGCAAUAUUACGUUGA, the “self-splicing fitness (ln)” value was -3.42 ± 0.29 (30 °C) and -0.401 ± 0.14 (37 °C).

Consider CCAAAGCAAUAUUACGUUGU, for which the “self-splicing fitness (ln)” value runs as follows: (30 °C) -3.77 ± 0.12; (37 °C) -2.44 ± 0.12. In the case of CCACAGCAAUAUUACGAACG, the “self-splicing fitness (ln)” value is, setting by setting: (30 °C) -0.247 ± 0.07; (37 °C) -0.267 ± 0.075. The matching figures for CCACAGCAAUAUUACGACAA: -3.09 ± 0.22 and -1.91 ± 0.17. The matching figures for CCACAGCAAUAUUACGAGUC: -3.55 ± 0.24 and -2.7 ± 0.22. On the same counts, the results for CCACAGCAAUAUUACGAUGA are -1.9 ± 0.11 and -1.77 ± 0.12. Take CCACAGCAAUAUUACGCAGG: the “self-splicing fitness (ln)” value is -3.97 ± 0.27 (30 °C) and -2.35 ± 0.23 (37 °C). On the same counts, the results for CCACAGCAAUAUUACGCCUC are -2.9 ± 0.26 and -2.58 ± 0.35. For CCACAGCAAUAUUACGCGAC, the “self-splicing fitness (ln)” value was -2.75 ± 0.17 (30 °C) and -2.76 ± 0.26 (37 °C).
